# Measurements as given in the supplement of paper PMC10567573.
# ± gives the standard deviation.
# Assay: protein stability index of a GFP-peptide fusion (GPS, HEK-293T) (PSI 1-6); higher = more stable
# Conditions: c terminus: a fixed tail appended
# 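Also: 24-mer peptide tiles fused after GFP, lentivirally expressed, FACS-sorted into six equal bins by GFP/DsRed ratio, decoded by Illumina sequencing, PSI is the read-weighted mean bin number.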
Sequence,protein stability index (treatment: DMSO),"protein stability index (treatment: MLN4924 1 uM, 8 h)"
KSNFRVQLFEDPTVDKEVEIRKKV [MNAT1],4.65 ± 0.33,4.69 ± 0.38
KSQIMSLSHSPQEDWVLLGMANGQ [TLE6],3.15 ± 0.2,3.12 ± 0.17
KSRLVQLPPVAVRSLQDLARIAIR [PCMTD2],3.52 ± 0.19,3.7 ± 0.073
KSSGKHYGQFTCEGCKSFFKRSVR [NR2F2],2.37 ± 0.18,2.68 ± 0.41
KSTSIQVIVKEGGLKLIQIQDNGT [MLH1],2.18 ± 0.53,2.54 ± 0.56
KTIKRPFGVKYNPYTRSIQILKDT [TPH1],2.35 ± 0.2,2.19 ± 0.22
KVKKSGSRVMFLLVDKETDKRHVE [PDZK1],–,3.4 ± 0.19
KVLRKAGLSAGYVDAGAEPGRSRM [LPCAT4],3.6 ± 0.31,3.73 ± 0.25
KVPSEAPSPMPTHRSYLGPGSTSP [SLC6A17],4.66 ± 0.069,4.71 ± 0.32
KVVQSLLNHGASVNNTTLTNSTPL [FEM1C],2.77 ± 0.21,2.83 ± 0.24
KWKVGIPSDPLVSIGALISKAHLE [ALDH8A1],2.48 ± 0.11,2.74 ± 0.17
KWTACSRSCGGGVTSQERHCLQQR [ADAMTSL2],2.75 ± 0.51,3.37 ± 0.59
LAGQKDELQLSDLLKQGYNKTLLR [PKD2L1],3.24 ± 0.23,3.39 ± 0.4
LAHAFQPGPGIGGDAHFDEDERWT [MMP1],4.73 ± 0.14,4.53 ± 0.21
LAVGTDLYGQRNSAPEQELLVQDA [GFOD1],4.66 ± 0.22,4.69 ± 0.36
LCKIGSERSLVLDRLASNVAKRKS [IKZF1],3.83 ± 0.24,3.93 ± 0.28
LCQKQVKAQLPRRESERRNHSLAR [FBXO28],3.81 ± 0.14,4.23 ± 0.17
LDEIPDDEDLDLIPPKSVNPTCMC [FAM219A],5.07 ± 0.16,5.16 ± 0.31
LDGALRTFLKAFPLMGETQERERV [PSD2],2.96 ± 0.098,2.88 ± 0.25
LDGLIQQCGETMKETVNVKTVCGY [GMCL1],3.1 ± 0.33,3.37 ± 0.36
LDQLLDMPAAGLAVQLRHAWNPED [SPSB4],3.44 ± 0.28,3.68 ± 0.16
LEAGASAASTAAALENLQVEASCS [TRIM39],5.36 ± 0.2,5.3 ± 0.37
LEEENKERAKREMVMYSITVAFWL [MFF],2.29 ± 0.55,2.82 ± 0.46

Sequence,protein stability index (treatment: DMSO),"protein stability index (treatment: MLN4924 1 uM, 8 h)"
LEELGTLNVFQTVSRMRTQRAFSI [PTPN9],2.48 ± 0.12,2.23 ± 0.17
LEKSNKNFSKKIQQIHVVSQFKIL [VPS39],2.17 ± 0.24,2.07 ± 0.26
LELVKYLLAAGANVHATTATGDTA [ANKRD17],2.16 ± 0.25,2.08 ± 0.4
LERVRVSCTIIFLASIFQLAMWTT [TMEM175],3.24 ± 0.4,3.29 ± 0.23
LFAFMLVYPKEFHLNRGNHEDHMV [PPEF2],3.03 ± 1,2.32 ± 0.35
LFGFYFCMPLVCTAIFYTLMTCEM [EDNRA],3.11 ± 0.33,3.14 ± 0.42
LFVGVDCFLLTAMAYDQFLAICRP [OR3A1],3.63 ± 0.6,3.13 ± 0.071
LGAMMLLESPIDPQPLSFKEPPLL [APMAP],2.41 ± 0.11,2.5 ± 0.45
LGDTQFCFRFRQSSGRRVSLHCLL [DENND6A],2.89 ± 0.48,2.65 ± 0.59
LGIPKNPWLWSEQQVCQWLLWATN [ETS2],2.29 ± 0.3,2.33 ± 0.15
LGNVAEVKELRPQLMTSQFISVFS [ZER1],2.55 ± 0.3,2.34 ± 0.28
LGPQVSLDPMKNVTCENGLPAVVS [LOXL2],4.3 ± 0.97,4.12 ± 0.25
LGRTGLYPSYKVREKIETVKYPTY [FUT8],2.42 ± 0.12,2.51 ± 0.14
LHARLRELLCELGRPSMVWLSANP [PRAME],2.65 ± 0.57,2.39 ± 0.42
LHLASDFFLKHPDKDVRLLVACCL [PDS5B],2.23 ± 0.79,2.39 ± 0.43
LHLGLPWRMLRPQLVNSSADNMLE [PPEF2],2.87 ± 0.31,2.67 ± 0.48
LHVWQITWAMRQRGTHAVVGVATA [SPSB1],2.58 ± 0.31,2.51 ± 0.64
LICLKKNHEEEVNTLRSQLGDRLN [KRT34],3.33 ± 0.21,3.45 ± 0.37
LIDQRYFQVLCSINSIIHNPRAPV [CEP70],–,2.07 ± 0.12
LIYTVMLAFRSGSDNLLVILKRKW [SLC35F2],2.3 ± 0.91,1.84 ± 0.51
LKDIFMFITRQLKGLEDTKSPQFN [PDS5B],2.11 ± 0.058,2.54 ± 0.31
LKDIHDDQDYLHSLGKARTAQVQK [FLOT1],4.67 ± 0.18,4.56 ± 0.24
